Where a chain is given by its changes, count along the chain named.
T1: recombinant His6-tagged extracellular domain of human Clec4C (C-type lectin domain family 4, member C) (human, UniProt Q8WTT0 44-213)
T1 construct: Same antigen for immunisation, panning and ELISA; also called His-Clec4C(EC); pMET7-SIgK-His-Clec4C(EC)
T1 sequence: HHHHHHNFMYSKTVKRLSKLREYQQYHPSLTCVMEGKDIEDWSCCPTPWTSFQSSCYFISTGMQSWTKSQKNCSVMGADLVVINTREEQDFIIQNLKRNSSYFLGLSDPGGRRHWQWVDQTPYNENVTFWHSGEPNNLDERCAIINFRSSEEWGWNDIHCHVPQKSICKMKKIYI

B1: 2CL72 (VHH)
VHH: QVQLQESGGGLVQPGGSLKLSCAASGSTFRHHAMAWFRQTPGKEREFVSAINDHGDRTKYLDSVRGRFTISRDNTDNMVYLQMSDLRPEDTAVYSCAAGPLVDYLETTPLVYTYWGQGTQVTVSS
notes: pMECS VHH-HA-His6; TG1 periplasmic extract
B2: 2CL88 (VHH)
VHH: B1 VHH with A23T, A24G, S49A, V93N
notes: as for B1
B3: 2CL87 (VHH)
VHH: B1 VHH with K19R, A24G, L61T
notes: as for B1
B4: 2CL41 (VHH)
VHH: B1 VHH with P14A, K19R, P88T, S95T
notes: as for B1
B5: 1CL25 (VHH)
VHH: B1 VHH with K19R, Q82L
notes: as for B1
B6: 2CL95 (VHH)
VHH: B1 VHH with A24G, R30K, Q39H, L61S, S71A, S84D, R87L, V93N, S95T
notes: as for B1
B7: 2CL78 (VHH)
VHH: B1 VHH with L11V, N74D, P88T, S95T
notes: as for B1
B8: 2CL90 (VHH)
VHH: B1 VHH with P14A, K19R, E44G
notes: as for B1
B9: 2CL91 (VHH)
VHH: QVQLQESGGGLVQAGDSLRLSCTASERTFSNYAMGWFRLAPGKERKFVAAISTSGGTTDYVDSVKGRFTISRDNAKNTVYLQMNSLKPEDTAVYYCAARLDFSSTDLYTTAPRYPYWGQGTQVTVSS
notes: as for B1
B10: 2CL43 (VHH)
VHH: QVQLQESGGGTVQPGESLRLSCEVSTDTFSSLAMAWFRQATGKDREFVAAISWSGASTVYGDSVKGRFTMTRDHPKKMVYLQMDNLKPEDTAVYYCAGDLDGRTWHGDDLEYDYWGQGTQVTVSS
notes: as for B1
B11: 2CL82 (VHH)
VHH: B10 VHH with T11L, E16G, D44E
notes: as for B1
B12: 2CL89 (VHH)
VHH: B10 VHH with G42A, A56D
notes: as for B1
B13: 1CL48 (VHH)
VHH: QVQLQESGGGLVQPGGSLRLSCVGSGSTFRHHAMAWFRQTAGKEREFVSAINNHGTKTRYSDSVRGRFTISRDNDENMVYLQMDNLRPEDTAVYSCAAGPLVDYLETVPVVYTYWGQGTQVTVSS
notes: as for B1
B14: 2CL8 (VHH)
VHH: B13 VHH with R19K, V23A, M34L, G42E, N53D, E76G
notes: as for B1
B15: 2CL4 (VHH)
VHH: B13 VHH with L20I, V23A, N53D, P88S, V93N, S95T
notes: as for B1
B16: 1CL21 (VHH)
VHH: B13 VHH with Q13R, A41T, N53D
notes: as for B1
B17: 2CL7 (VHH)
VHH: QVQLQESGGGLVQAGDSLRLSCAPSGFTFDGYAIGWFRQAPGKEREKVACINKSDGLTYYEDSVKGRFTISSDTAKNTIHLQMNSLKPDDTAVYYCAAAWECDYAPADFGSWGQGTQVTVSS
notes: as for B1
B18: 2CL18 (VHH)
VHH: B17 VHH with D16G
notes: as for B1
B19: 1CL2 (VHH)
VHH: QVQLQESGGGLVQAGDSLRLSCAASGDTFSMYAMGWFRQAPGKEREFVAAISRSGGSTDYRDSVKGRFTISRDNDLNAGYLQMNSLKPEDTAVYYCALRLTFSTTTAYTGELQYPYWGQGTQVTVSS
notes: as for B1
B20: 2CL58 (VHH)
VHH: B19 VHH with G56S, D59N, A107T
notes: as for B1
B21: 2CL73 (VHH)
VHH: B19 VHH with D27N, D59N, S85N, T106D, E111K
notes: as for B1
B22: 1CL32 (VHH)
VHH: B19 VHH with A33T, D59N
notes: as for B1
B23: 1CL54 (VHH)
VHH: QVQLQESGGGLAQAGASLRLSCAGSGNNFEHYAVAWFRQDAPGKERDFVAAIRDYGDRTRYDDSVKGRFTISRDNAKSMVYLEMNNLKPKDAAVYYCAAGPLNDYLEVTPLVYTYWGQGTQVTVSS
notes: as for B1
B24: 2CL52 (VHH)
VHH: B23 VHH with D40E, D62A, K90E, A92T, A98T
notes: as for B1
B25: 2CL26 (VHH)
VHH: QVQLQESGGGWVQPGDSLRLSCAASGFTFSDYAVGWFRQAPGKEREFVARITRLGNGPYYSASVKGRFTISRDNARDMAYLKMDALTPEDTATYYCAAGRTLASTHDTKTSPQTYDYWGLGTQVTVSS
notes: as for B1
B26: 2CL55 (VHH)
VHH: B25 VHH with F27S, L120Q
notes: as for B1
B27: 2CL16 (VHH)
VHH: QVQLQESGGGLVQPGGSLRLSCAASGDTFSNYAMGWFRQAPGKAREFVAAISRSAGSTYHVDSVKGRFTISRDNAMNTVYLQMNSLQPEDTAHYYCAARLTFNLIDYYTAETRYTYWGQGTQVTVSS
notes: as for B1
B28: 2CL59 (VHH)
VHH: QVQLQESGGGLVQPGDSLTLSCADSGRTFSNYAMGWFHQAPGKEREFVAAISTSGGSTAYADSVKGRFTISRDNAKNTVYLQMNNLKPEDTAVYYCAARLSFSGSSYYQGPLQYPYWGQGTQVTVSS
notes: as for B1
B29: 1CL47 (VHH)
VHH: QVQLQESGGGLVQAGGSRRLSCAASGRTFINYAMGWFRQAPGKEREFVAAISTSGSNTYLADSLKARFTISRDNAKNTVYLQIRSLNPEDTAVYYCAARLSFDDSAYYTSTLRYAYWGQGTQVTVSS
notes: as for B1
B30: 2CL21 (VHH)
VHH: QVQLQESGGGLVQAGGSLRLSCAASGRTFTGYAMGWFRQVPGLEREFVARISRSGNSTGYADSVKGRFTVSRDNAKSTMYLQMNSLKTEDTAVYYCAATTSWLPGHNANVYDYWGQGTQVTVSS
notes: as for B1
B31: 2CL71 (VHH)
VHH: QVQLQESGGGLVQAGGSLRLSCAASGLTFGRYAMGWFRQVPGLEREFIARISRSGDNTGYADSVKGRFTVSRDSAKSTVYLQMNSLKTEDTAVYYCAAGTSWVPGHNANAYDYWGQGTQVTVSS
notes: as for B1
B32: 2CL30 (VHH)
VHH: B30 VHH with L11S, T30S, G31D, N56D, S77N, M79V
notes: as for B1
B33: 1CL82 (VHH)
VHH: QVQLQESGGGSVQAGDSLRLSCVAPGREISSPAMGWFRQAPGKEREFVATINWSSGATLTADSVKGRFTIFKDVEKNTVYLQMNSLRPEDTAVYSCAAGATGVFRIARAYSYWGQGTQVTVSS
notes: as for B1
B34: 2CL84 (VHH)
VHH: QVQLQESGGGSVQAGGSLRLSCAASGRTFSDYAMGWFRQAPGKEREFVATISKSGSSTDYADSAKGRFTISRDNAKKTVYLQINSLKTEDTAVYYCAARLSFDNTAFYTSAIRYSDWGQGTQVTVSS
notes: as for B1
B35: 2CL92 (VHH)
VHH: B34 VHH with G16D, D31G, K53T, D59Y, A64V, T78S, T91A, D116Y
notes: as for B1

Target: T1, recombinant His6-tagged extracellular …
Assay: ELISA, antigen-coated vs uncoated blocked wells
From the text: (§1) In total, 190 colonies from rounds 1 and 2 were randomly selected and analyzed by ELISA for the presence of antigen-specific VHH in their periplasmic extracts (ELISA using crude periplasmic extracts from TG1 cultures including soluble VHH). The antigen used for ELISA screening was the same as the one used for immunization, using uncoated blocked wells as negative control.

| Binder | ELISA ratio coated/uncoated |
| --- | --- |
| B1 | 21.5 |
| B2 | 12.2 |
| B3 | 11.5 |
| B4 | 20.9 |
| B5 | 5.81 |
| B6 | 23.2 |
| B7 | 32.7 |
| B8 | 7.54 |
| B9 | 5.56 |
| B10 | 12.1 |
| B11 | 9.74 |
| B12 | 10.7 |
| B13 | 7.83 |
| B14 | 15.7 |
| B15 | 31.3 |
| B16 | 11.1 |
| B17 | 6.57 |
| B18 | 4.74 |

| Binder | ELISA ratio coated/uncoated |
| --- | --- |
| B19 | 4.36 |
| B20 | 4.66 |
| B21 | 4.93 |
| B22 | 9.9 |
| B23 | 17 |
| B24 | 7.07 |
| B25 | 21.4 |
| B26 | 15 |
| B27 | 14.1 |
| B28 | 3.98 |
| B29 | 9.79 |
| B30 | 4.23 |
| B31 | 5.33 |
| B32 | 8.28 |
| B33 | 6.23 |
| B34 | 18.2 |
| B35 | 11.4 |

Target: T1, recombinant His6-tagged extracellular …
Assay: ELISA, TG1 periplasmic extract on coated antigen
From the text: as §1

| Binder | ELISA coated |
| --- | --- |
| B1 | 3.63 |
| B2 | 4 |
| B3 | 1.62 |
| B4 | 4 |
| B5 | 4 |
| B6 | 4 |
| B7 | 3.75 |
| B8 | 4 |
| B9 | 4 |
| B10 | 2.64 |
| B11 | 2.68 |
| B12 | 1.31 |
| B13 | 3.85 |
| B14 | 1.81 |
| B15 | 2.8 |
| B16 | 3.79 |
| B17 | 0.664 |
| B18 | 0.491 |

| Binder | ELISA coated |
| --- | --- |
| B19 | 3.74 |
| B20 | 2.24 |
| B21 | 2.43 |
| B22 | 3.22 |
| B23 | 1.88 |
| B24 | 1.65 |
| B25 | 4 |
| B26 | 1.7 |
| B27 | 2.03 |
| B28 | 3.76 |
| B29 | 4 |
| B30 | 3.89 |
| B31 | 4 |
| B32 | 3.79 |
| B33 | 3.01 |
| B34 | 3.86 |
| B35 | 3.89 |
